The results in this text go back to the supplement of paper PMC12042874.

± gives the uncertainty stated by the source.

The nature of the first series: amyloid nucleation score (Sup35N fusion, yeast selection) (log enrichment); library NNK3; higher = more nucleation; inactive = no reads after selection. Put shortly: (§1)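 Using DiMSum, nucleation scores were taken as the log enrichment of output over input reads, centred on the mode score of non-aggregating sequences. The input and output reads came from Illumina sequencing of plasmid inserts, with sequences under 100 input reads excluded. The yeast were psi-negative, expressed Sup35N fused to peptides of 20 random codons, were induced with 100 μM copper sulfate for 24 hours, and were grown 7 days at 30°C on medium lacking adenine and uracil.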
For the substance LMYMS, the amyloid nucleation score entry is “inactive”.

A short description of another series: amyloid nucleation score (Sup35N fusion, yeast selection) (log enrichment); library NNK1; higher = more nucleation; inactive = no reads after selection. Put shortly: as §1
Take LMYMS: the amyloid nucleation score is -0.11 ± 0.67. On the same count and under the same terms, for YSSLLVTLAEAWCIRLSNRR the value was 0.665 ± 0.84; for YSSSRRDCRRPGTMYRPLPQ, -0.547 ± 0.55; for YSVGFTCRMVTLSASWYWLW, 0.136 ± 0.32. On the same count and under the same terms, for YSVLNINLQFRSSLLGAFYP the value was 3.75 ± 0.063; for YSVLTFADLYMVSMS, “inactive”. On the same count and under the same terms, for YSVLVPIPLSCCISDVLYCT the value was 5.61 ± 0.064. As for YSVMYMQSFFDKWLSTSAFR, the amyloid nucleation score was -1.17 ± 1.4. Still for that read-out and setting: with YSWLVYNHNSDPGGSVCWSC the figure was 5.61 ± 0.065; with YSYFWVAWF, 0.329 ± 0.4.

With YSYVRVIFYV, the amyloid nucleation score amounted to 0.145 ± 1.

For the substance YTDAIYHPIPRTGMYSWC, the amyloid nucleation score is -0.194 ± 0.34. On the same count and under the same terms, for YTEQACDSVP the value was -0.788 ± 0.89; for YTLMLCNVASVDSWI, 5.05 ± 0.063. The same measure, in the same setting: with YTNGNIASTVLYLRPGYHLA the figure was 1.06 ± 0.49; with YTNLAT, 0.251 ± 0.5. On the same count and under the same terms, with YTRMLLRGAIETGFYPNMLE the figure was -1.2 ± 2.1. YTSGLFGF: the amyloid nucleation score was -0.531 ± 0.37. Consider YTSIGI, for which the amyloid nucleation score was -0.144 ± 0.45. The same measure, in the same setting: for YTTHLCLGAVSLYYVSGYTR the value was 2.44 ± 0.13; for YTVMVVI, 1.44 ± 0.4; for YTVRGRDYNGAM, -1.3 ± 2.4.

Consider YTWGRLGSEIKPARASMHLA, for which the amyloid nucleation score came out at 1.08 ± 0.75. The same measure, in the same setting: with YVCFVQSCFYARQGHMSGEA the figure was 0.165 ± 0.31; with YVDDFPRQSAGFIDT, 2 ± 0.57. In turn, YVGAMCLTRGKVRRSEERN showed an amyloid nucleation score of 0.553 ± 0.54. In the case of YVKISVLGSKIYNIS, the amyloid nucleation score came to 5.38 ± 0.093. Regarding YVLFFSPCT, the amyloid nucleation score entry was “inactive”. Still for that read-out and setting: for YVLMPWSFLLHGMRNLTAMS the value was “inactive”.

Substance YVMDYSD had an amyloid nucleation score of 0.096 ± 0.61. Still for that read-out and setting: with YVPGTNILLIIGEICQVPTD the figure was 2.18 ± 0.22. On the same count and under the same terms, for YVQTLSNTECNAIANMHERF the value was 0.641 ± 0.42. Still for that read-out and setting: for YVRIVIAYFKFSKQFSSQLV the value was 0.089 ± 0.22; for YVSLLYLLWLI, -0.326 ± 0.32; for YWIFFNT, 3.16 ± 0.13.

In the case of YWIIKVRNRLVPRFFKYKGS, the amyloid nucleation score was -0.491 ± 0.39.

Regarding YWLLLSSENRECVLVTRRHR, the amyloid nucleation score is -0.585 ± 1.7.

As for YWLSTTIRYVCEVQATPCWI, the amyloid nucleation score was -1.31 ± 2.7. The same measure, in the same setting: for YWPGLGFMFDNYSI the value was 0.555 ± 0.71; for YWTSIHSLNTSIP, -0.229 ± 0.62; for YWWDIRWGEAGSRERRVELG, 0.078 ± 0.53. Same read-out and setting: for YWYFYISDRVKDNSCSNWSL the value was -1.03 ± 0.47. Same read-out and setting: with YYEMIFSWVTPHSYRDTSYC the figure was -0.733 ± 1.9; with YYFRFCREVIARLGMDMSSK, -0.341 ± 0.29; with YYNVYTTYTASVWGTYRWNV, -1.45 ± 0.82. Substance YYRKHFRLYIIIWDLFKI registered an amyloid nucleation score of 0.282 ± 0.97. Same read-out and setting: for YYSFGRFKYTILL the value was -0.242 ± 0.6.

Take YYSYMNCIMITISLLMLVLQ: the amyloid nucleation score is -0.052 ± 0.21.

With YYYYPNGDCEKK, the amyloid nucleation score is -0.657 ± 0.63.
